# Article PMC10311840, “Purification and characterization of inorganic pyrophosphatase for in vitro RNA transcription” (Biochemistry and cell biology = Biochimie et biologie …, 2022)
# Values joined by “and” are separate entries in the source; they are usually repeats but may differ in a detail not shown here. Equal entries are not always repeated.
# Tests used:
# [1] = biological target: the molecule itself; assay: SEC-MALS; SEC-MALS-DLS; Superdex 200 Increase 10/300 GL; 355 umol/L affinity-purified iPPase injected in 500 uL; 25 C; 80 mmol/L Tris-HCl pH 7.5, 30 mmol/L MgCl2, 4 mmol/L spermidine, 20 mmol/L NaCl, 4 mmol/L DTT; self-association, dimer, tetramer and hexamer peaks
# [2] = biological target: the molecule itself; assay: SEC-SAXS; HPLC-SAXS at Diamond B21; 50 uL of 450 umol/L iPPase on Superdex 200 Increase 3.2/300 GL; dimer and tetramer peaks analysed, hexamer peak not usable; self-association
protein,measurement,setting,value
"yeast inorganic pyrophosphatase (enzyme, inorganic pyrophosphatase, product of the yeast gene IPP1, family 1 iPPase (EC 3.6.1.1); expressed from plasmid pET29b-IPP1-His; no cleavage is described; also called iPPase; yeast iPPase) TYTTRQIGAKNTLEYKVYIEKDGKPVSAFHDIPLYADKENNIFNMVVEIPRWTNAKLEITKEETLNPIIQDTKKGKLRFVRNCFPHHGYIHNYGAFPQTWEDPNVSHPETKAVGDNDPIDVLEIGETIAYTGQVKQVKALGIMALLDEGETDWKVIAIDINDPLAPKLNDIEDVEKYFPGLLRATNEWFRIYKIPDGKPENQFAFSGEAKNKKYALDIIKETHDSWKQLIAGKSSDSKGIDLTNVTLPDTPTYSKAASDAIPPASPKADAPIDKSIDKWFFISGSV",stoichiometry N,[1],2 and 6
same,stoichiometry N,[2],4
